The series in a line: folding stability dG unfold (combined trypsin and chymotrypsin); higher = more stable. As for the experimental part: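 Folding stability of de novo designed mini-proteins (<80 aa, no Cys; designed by TrROS, TrMRF, ProteinMPNN and the joint model) was measured by cDNA display proteolysis with trypsin and chymotrypsin. Each protease was used at 11 concentrations in a threefold dilution series plus a no-protease condition. K50 was inferred by Bayesian fitting of sequencing counts, and dG unfold was derived against a sequence-predicted unfolded-state K50 (Tsuboyama et al. method). Sequences shown include variable-length N-terminal GS-type padding (SAGGSAGG...) inside a display construct carrying a PA tag. Rows were kept only if the AF2 dimer inter-PAE was >15, to exclude likely homo-oligomers.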
As for “SAGGSAGGSLSLSSNPLVTDPETGEVVYPAVADPVGIATAQWPDSTSYTPMPPNVTRVVRPGEASAGGSAGG [r6_627_JUSTAS]”, the “folding stability dG unfold” value was less than -1 kcal/mol.
To “SAGGSAGGSLTIPLPDGGTLTVVEEDEEEVLVEERKPNPGGSSPATFTRTIRRPPPVLPPKLVSAGGSAGGS [r12_959_JUSTAS]” belongs less than -1 kcal/mol; to “SAGGSAGGSMEITVTLPPDQTAEDAIAALPSEYKNVTVLETSTTFPPTTDETPTVTLTIKVTKSAGGSAGGS [r12_822_JUSTAS]”, less than -1 kcal/mol; to “SAGGSAGGSMFMVKINNGKEIPIPPEDLPPGETVEELADNIPPGMRNIEIYNWDGEEQEIPIDSAGGSAGGS [r20_161_TrROS]”, less than -1 kcal/mol.
To “SAGGSAGGSMTPEKIKKIRKRMEERGYQIPSIETNPGNGMPFININPPDPEMREKDPELRELISAGGSAGGS [r12_482_TrROS]” belongs less than -1 kcal/mol.
Regarding “SAGGSAGGSNWTIKVNIVEKPNGKKYIPITMRPPNGNTREGPMPADEIKDRFGMPAEDIAKAISAGGSAGGS [r20_235_TrROS]”, the “folding stability dG unfold” value is less than -1 kcal/mol.
With “SAGGSAGGSPAFTVPREVKVGDKPVTVEVDGEGRVTIRTPEGGSESEPVGSPGPAPVAFRITLKSAGGSAGG [r6_241_JUSTAS]”, the “folding stability dG unfold” value is less than -1 kcal/mol.
Consider “SAGGSAGGSPIMVRVERRDKDGKKKPVPTIPIPINNDDPEEALEWANEIAKKAGARDVRVEIWSAGGSAGGS [r12_569_TrROS]”, for which the “folding stability dG unfold” value is less than -1 kcal/mol.
In the case of “SAGGSAGGSPVDEIIEEIKKKGYKANVKSVSVSPNSKGELEIELEINIEKPEPKGTEENIKKKSAGGSAGGS [r12_120_JUSTAS]” it was less than -1 kcal/mol; in that of “SAGGSAGGSSPSDTVTAELRYVLPDGTPVERTLSLTDLPSSVTPEDTLTLPGPGLRARILAVTGSAGGSAGG [r6_561_JUSTAS]”, less than -1 kcal/mol; in that of “SAGGSAGGSTIMIPPGMPPEEAKAWARDIAREQGFPPGRDLNVEVEPQPFDGGPWYTIDIEWDSAGGSAGGS [r12_252_TrROS]”, less than -1 kcal/mol.
For “SAGGSAGGSTWEEVKKKAKEAGPELDFEPSPEGEKKFKIVAPKDKPEAVEALAKEYNVELEIESAGGSAGGS [r12_74_TrMRF]”, the “folding stability dG unfold” value was less than -1 kcal/mol.
To “SAGGSAGGSVKDKNGTPYSVKEAKEKKLPNGTLVIELTLPESGKKITIPKKDIPKGISSEAKLKSAGGSAGG [r6_371_JUSTAS]” belongs less than -1 kcal/mol; to “SAGGSAGGSVVIPESVISNMKEEEIRELIKKNPKPVLLVTENPEVRKKAEEIFKKEGYPLVVGSAGGSAGGS [r12_97_TrMRF]”, less than -1 kcal/mol.
In the case of “SAGGSAGGSVVPPEEEETVEKKETLTDPVTGKEYLSRRRVTYRPSKPEKVAEEEEIIPPDEPLSAGGSAGGS [r12_868_JUSTAS]” it was less than -1 kcal/mol; in that of “SAGGSAGGSVYYDESEDGVFVRVEGDGAPRVFPVADPEEARYRRIPTPDGRPVRVELRPSEEGSAGGSAGGS [r12_730_TrMRF]”, less than -1 kcal/mol.
To “SAGGSAGGVEVEADPEYEVEVFEDPETGAVVAIVKGPDEVERALRFIPETGEPVELPLEEFEPLSAGGSAGG [r6_304_TrMRF]” belongs less than -1 kcal/mol.
On to “SAGGSAGSSSVSTVTPVGDYVVVTVNAPEGSVVTITDPATGTTETRAAPAGATFTVPPNASVSVTNSAGGSA [r15_418_JUSTAS]”, for which the “folding stability dG unfold” value is less than -1 kcal/mol.
Consider “SAGGSALKPGQPVMIHVRLKIERPDPDGDEKKIPEIHIPVPVEEAKDIAEALPPNYKVKIDDISIMSAGGSA [r15_833_TrROS]”, for which the “folding stability dG unfold” value was less than -1 kcal/mol.
In the case of “SAGGSAMKFYIKYDPKKEKTILILPENNPDLEGNDGSKVIKVENEEELIKLIEEAKKKGIKKIEIKSAGGSA [r15_1004_TrMRF]” it was less than -1 kcal/mol.
With “SAGGSAMKYTLKDKDGKTITIEVEEHENPDGEPWYEVDIEHPNDGKEKKVYMPPNNPEEFAKKFLKSAGGSA [r15_92_TrROS]”, the “folding stability dG unfold” value is less than -1 kcal/mol.
In the case of “SAGGSAPIKITIHWDPENGMYRIKGKTPDGPVEYPFPRDELRNMPIENFADELNYEIKDVEIEPYPSAGGSA [r15_801_TrROS]” it was less than -1 kcal/mol; in that of “SAGGSAPKRRIEIYPNPNGMYRIKVSNPDGKKREHTIDGPGMPLEQLANKLNIPPGFKIDEIEPYPSAGGSA [r15_167_TrROS]”, less than -1 kcal/mol; in that of “SAGGSAPPLTEVTLTEVSTDPETGTTTLTLEASGPVESVPLEFPDGRSVKAERLPDGTLVVTNPGASAGGSA [r15_736_JUSTAS]”, less than -1 kcal/mol.
In the case of “SAGGSASPDTRLVRIELKSNVPGTGIEVTETVPLVELEPDEPAEAVAEEVRAAHPVDEVTVTVDPASAGGSA [r15_540_JUSTAS]” it was less than -1 kcal/mol.
In the case of “SAGGSASSMVSSLPLKVDPKEKARAEAEKLAEEKLEEEPDLEGTVEVELEMETPDKKIKVRLEIKKSAGGSA [r15_729_JUSTAS]” it was less than -1 kcal/mol; in that of “SAGGSATIEEILKEIAEPHGAEPEVDPNSGVIEVDFPNGQEHTINVDDGKPIKIKYNPPGRMYIEISAGGSA [r15_256_TrROS]”, less than -1 kcal/mol.
As to “SAGGSAYITIDDIKKLGPNMPIMVEPPKGRLMIFSPNQMVKITIDPDDDTIKVKEVFDSPEAMEKLSAGGSA [r15_6_TrROS]”, the “folding stability dG unfold” value was less than -1 kcal/mol.
To “SAGGSEPFTPEDLIRKALPVKPKAVVIPGPVSEEEIKALLDAGIPVVIIGKDGSRAVAVGDEVKPLSAGGSA [r2_33_TrMRF]” belongs less than -1 kcal/mol; to “SAGGSEVFVLPNGAVAVVEPDPDGVRVARVPGLPGVAVRYPPATRRWVLVTVDPRKGGPRTFTLTGSAGGSA [r2_477_TrMRF]”, less than -1 kcal/mol.
On to “SAGGSGGSTTPTFEEHVITGPLPVEIKVKKTTLNVTGSSAPSTTTTTTFYDPSGKKLSTKTTTTSSSAGGSA [r2_215_JUSTAS]”, for which the “folding stability dG unfold” value is less than -1 kcal/mol.
On to “SAGGSITISMPWNDPEKAAKALEEAFGVDVPPKVERDPGNGWYTITLPNLGRKIQIDGNKVKIEPPSAGGSA [r2_205_TrROS]”, for which the “folding stability dG unfold” value is less than -1 kcal/mol.
Consider “SAGGSKVPLDDFDKVTIGVDPKTGKTTASIYYPSDGSTVTFPGKEIPEVLASNPNIKTVETEPLPGSAGGSA [r2_159_JUSTAS]”, for which the “folding stability dG unfold” value was less than -1 kcal/mol.
In the case of “SAGGSMKSEKVFTDPGPFDGASVTVTATEDGTITITVVDPDGVPKTFTKKVEKGNPEEVVKEAIKESAGGSA [r2_298_TrMRF]”, the “folding stability dG unfold” value is less than -1 kcal/mol.
To “SAGGSMPIDDIKEINIQYNPNTGTVMVPFRLPNGHEIMAEQKYDPEAGWPVIPIRVNDGKPIEIPISAGGSA [r2_490_TrROS]” belongs less than -1 kcal/mol; to “SAGGSPITPEIAQELAEEFPNWDIHVEPRKPGEEIRFPNGMRIFDDPNGYRVMVHNPNGKPRQLPVSAGGSA [r2_166_TrROS]”, less than -1 kcal/mol.
In the case of “SAGGSPPVPDDETVEIEVPDYKITFHPATQEVTVQTNDPAKAKAVIEALPYPIPYKNIKIVPPEKLSAGGSA [r2_418_JUSTAS]” it was less than -1 kcal/mol.
In the case of “SAGGSPVVPLPPDATATLTETVKVPRVLFDEEGNELEKLEVERTVTTTYTRLPGGEVATTTTTTTESAGGSA [r2_154_JUSTAS]” it was less than -1 kcal/mol.
For “SAGGSTYTVTRTEELPDGTVRAELTVTLDGAPVPATGTTETAPGGRRRVTVTFPSDPSLSLTTPEESAGGSA [r2_376_JUSTAS]”, the “folding stability dG unfold” value is less than -1 kcal/mol.
With “SAGGTELAERIRAMGGFEVVEIKEGEGKPKVTVRTPDPALAEELRAFLAADPRVESVELEELSPELKSAGGS [r16_671_JUSTAS]”, the “folding stability dG unfold” value is less than -1 kcal/mol.
In the case of “SAGIRFRPGARIEWQNPDNGKKVEIRMREIRDRIQEINGNENPEQITAEQIQEWAREHGFRPIKIEPPSAGG [r19_67_TrROS]” it was less than -1 kcal/mol.

The record behind these values is the supplement of paper PMC12764529.
